Marks after values point to notes of the source that are not given here.
What was measured:
[1] = Pharmacokinetics after single subcutaneous administration in mouse; type: in vivo, female C57Bl/6 mice; details: 0.3 mg/kg s.c.; assay FGF21 intact
Protocol: Plasma concentrations and pharmacokinetic parameters of GLP-1RA/FGF21 Fc fusion proteins were determined after single subcutaneous administration of 0.3 mg/kg in solution to female C57Bl/6 mice or male Cynomolgus monkeys using three different methods. Blood samples were obtained at time points from 30 minutes to 168 hours after dosing.
Plasma samples were analyzed for the intact FGF21 part of the fusion proteins with an ELISA kit (F1231-K01, Eagle Biosciences, USA). The assay utilized the two-site sandwich technique with two selected antibodies that bound to different epitopes of human intact FGF21. […] For the detection of the immunocomplex, the well was then incubated with a substrate solution in a timed reaction and then measured in a spectrophotometric microplate reader. […]
The concentration of the full-length GLP-1RA/FGF21 Fc fusion proteins in plasma were determined utilizing an ELISA method. […] Following washing 3 times with 300 µL PBS-T 150 µL read buffer was added to the wells.
Plasma samples were analyzed for the intact GLP-1 part of the fusion proteins with a GLP-1 ELISA method. […] Following washing 3 times with 300 µL PBS-T, 150 µL read buffer was added to the wells.
The pharmacokinetic parameters were calculated by the program WinNonlin 6.4 using a non-compartmental model and linear trapezoidal interpolation calculation. […]

[2] = Thermal shift assay (DSF, Sypro Orange); type: physicochemical; details: Data generated via DSF
Excerpt: In addition, for some proteins, a thermal shift assay was applied to analyze thermostability in imitation of differential scanning fluorimetry (DSF or ThermoFluor™) assays (Ahmad S. et al. (2012) Protein Science 21: 433-446; Pantoliano et al. (2001) J. Biomol. Screen 6: 429-440; Niesen et al. (2007) Nat. Protoc. 2: 2212-21). This assay is based on the observation that hydrophobic fluorescent dyes, such as Sypro™ Orange (Life Technologies, cat. No. S6651), increase their fluorescence when they bind to hydrophobic patches on a protein.
Proteins were tested by mixing a solution of each protein in PBS (Gibco) with a 160x solution of Sypro™ Orange (diluted in water from a 5000X DMSO stock as provided by the supplier). The sample volume was adjusted to 20 µL with PBS. Typical conditions contained 0.8 mg/mL protein and 8x Sypro™ Orange in the final mixture, but protein concentrations could be varied between 0.4 mg/mL and 1.2 mg/mL. Samples were dispensed in 96-well PCR plates (BioRad Semi-Skirt 96 white) and shortly centrifuged to remove air bubbles. […] For excitation and quantification of fluorescence, filters for wavelengths of 485 nm and 575 nm were chosen. […] In curves of fluorescence intensity against temperature, the inflection point was chosen as the measure for the melting temperature (Tm).

B1: 252 (protein)
chain: GHPIPDSSPLLQFGGQVRQRYLYTDDAQQTEAHLEIREDGTVGGAADQSPESLLQLKALKPGVIQILGVKTSRFLCQRPDGALYGSLHFDPEACSFRELLLEDGYNVYQSEAHGLPLHLPGNKSPHRDPAPRGPARFLPLPGLPPAPPEPPGILAPQPPDVGSSDPLSMVGPSQGRSPSYAS
modifications: G-FGF21
t½ mouse [1]: 42 min
Tm [2]: 43.1 * °C
